# Results reported in the DeepSol protein solubility set.
# Test: soluble on expression in E. coli; label from the status in PepcDB or PDB records
row,Sequence,soluble on expression in E. coli
1,MGSDKIHHHHHHMLKHLDNITDCRSHINQEHDVIDICFLVLSAVISGAQSWSACHEFGTLELEWLRKYRPFTNGIPSQQSIGRIFRGVSKQSLLDALMSWVNEYRVNTGQSSIAIDGKVLKGAKASASSAALHMVTAYDTGSGLVFSAKSGASKKSELKLVQELLTCLDLKSELLTFDALHCQSQTLDYIAKEGGDCILQVKGNQPKLYEALQAQFTDYIENNPDAECFTETNKGHGRVEKRITFQCPLNLPAEIKMKWSQLKTLIAVERHRKVGNKTSIDTHFYVSSAVLTSEAFGRAIRAHWQTENNQHWLLDKLFQEDKQKMYDEDGASILAILRRWALNLVKLHPAKTSQTQKFNRACWSDDFREEIIFGTGQKV,not soluble
2,MGSDKIHHHHHHMLKIGLLWHSTTSDNLGVGALTEAQISIINKAAVQAGVEVEYRIFGTNGNKDYFEGNPLIERGTNVSLKRILIGASDYPKKIRECDVVFDIGEGDSFADIYGFSRFLIQIVSKLVVLFQRKPLILSPQTIGPFESRFNLKVANNVMQRCTKIFVRDGLSFGYLQKNNLSVNAEEVIDVAFRLPFQRPSRDSSKVKIGLNVSGLLYNGGYTGKNQFGLSVNYPELTRSLLDQFTRIEGCEVWLVPHVLTTSFPIEDDVNVCVQLQELYPAAKLAPSFSSPSQAKSFISGMDFFLGARMHACIAAFSSGVPVVPLAYSRKFNGLFSALDYPYLGDCKVNTNEQIVGLVMDCFNSREQLKFAVEEGNKIAEKKLLRYEQYIAELLTRISNKKIVL,not soluble
3,MGSDKIHHHHHHMLKIKTSNLRPGIKLGKDIYSYDSQLLLTSGSTITQEHLDSFARRNIEEVFILDESPRMKPERDFEDVYQDALEVVNSFMVGAMLGSPLDFQEIDKTVDLLREQAFDAIDLFRQMRLMKNKGEYLFTHSINVSLLCILIGRWLKCDRNTIRELGIAGLLHDLGKVFIENDILNKPGKLTDQEYEKIKKHTVLGYNFICQNPDMNLEVANAALMHHERVDGSGYPSGLKGQLNFYAAVVAVADVYDAITSAHSYADKRSPYSAAEILWQESFGKLDARITKVFYDKITNFYVGNKVLLSNKKEGIVIYVDPFQPTRPIVMVEDEFYNLALDRSITIRDIID,not soluble
4,MGSDKIHHHHHHMLKPDRLRALAEALTRQNVMRLRDAAGLLGVSEMTVRRDIAGSPERFTYLGGYIVSATDVPNNAGYSLEEEKDHFAQAKAEASAVAAGLIGNNETLFIDCGTTLTTLARLIPLERHVTVVCYSLNVAEILRRKPNVRMILLGGVYVPSSDSFAGEESLEMLRRMGINKAFISAGGVDTARGVTCWNFHEVALKQAAMASAVERHLVVDQSKFGVVKAVRFSQVDDFDSIITEKGQQLRKRR,not soluble
5,MGSDKIHHHHHHMLKVSDLTVGNNFVHNVSFEVNPGERVGIIGESGSGKSLTALSIMGLTDLPTTGQITFNGKPSATFRGTRIAMVFQEPMSALNPLMRIGRQIEEMMTLHGASKKDARARLKSLLIDVSLPERTASAYPHELSGGQRQRALIAMALANDPDLLICDEPTTALDVVVQKQIVDLLLRLTKERGTALLFITHDLGLIARTCERLLVMKSGETVERGDTEAILRSPAHSYTQQLLDASILDQPEIASDSGAPVVIDVEEASKSFKETTALHKVSLAVRKGDLLGIVGGSGSGKTTLLKLIAGLDKPTTGTVAVTGGVQMVFQDPQSSLNPRMKIKDIVAEPLLGWNAAEKTTRVAEVITQVGLSPDVLDRYPHEFSGGQRQRISIARALAIKPAILLADEPVSALDVSVRKQVLDLLQQLVEEYGITLVFVSHDLAVVRHLCTTVWVMEQGRVLEQGPIDSVYDHPQTEYTKELLDAVPRLSL,not soluble
6,MGSDKIHHHHHHMLLDTNIFSSFEDYSDISGKLNELSRRLNPKSILLKHPKSIEYLNTLDEDTKRILLSKLAFCDLLNDYPSPINDLEFNTNVGYLKGTNNDLENNLLYAVYTNSVTYLITENRMIHQKSTKLGLKDRVLYLNEALDFFKEFYSIQKRQILPQIKQRPITKVDVDDQIFDSLREEYPEFNNWYNEKAHLGRECWCYIKESGKLGAVLIFNGEDFDVIKTDPLLPEKRRFKICTFKVDQVGYKLGELLLKKAFDYCIDNSITETYLTHFAKSEFDYLVNLITEYGFIDIGTNENGENVFFKDLNPTPNQLMFCDYKDIFKKYYPLFYDGNRVKKLVVPIRPQYHEKLFTDYVKRTSITLNEYFGDFIIEGNTIKKAYISHSPIKNLKKGDILLFYRSEDHKELTSLGVLEEFKTNLTSPEEIINMVGKRTVYSSREIEEIVKKPASVMIFTMHLHLKSPIPLTVLKENNILKGPPQTITEITHGAYEKIRDLGGINDNLTIH,not soluble
7,MGSDKIHHHHHHMLLEIRHVTQYHYERPVRESLMELWMQPQKTARQRLVSFELDLNPAAQVFSYADSFGNAVYHFDVPQPHDNLTIIARSAVETESPGERPDQLDMGEWDRLRSEFVRGECFDFLRPHGFVRTTEALQTFINEHDLDALKRRDPLTAVRSLSETIYGAFEYQPGVTDADSPIDLTLSAGRGVCQDFAHIMLAVCRGWGVPARYVSGYLFTDRDAGDRSDPDATHAWVEVFLPSLRWVGFDPTNNMMAGERHVAVAVGRDYADVTPSRGVYKGDAESQLAVGVSVRRARAALAEPEFLRMARPSFAGGRRRHDTALREELHQQQQQQQ,not soluble
8,MGSDKIHHHHHHMLLVENFDLRATMEQPTSFDEMWGTSGSLREPYREFHDWFGSEDPARLRKKQRDADKLFRLTGITFNVYGKAEAEERLIPFDIIPRIISGSEWARLSRGIEQRVRAINAFLYDIYHKQEIVKAGRIPKEMISRNDAFLPHMIGVEPPGGVYTHIVGIDLVRTGPGEFYVLEDNARTPSGVSYMLENRETMLQMFPELFSQNRVQPVSNYPTDLRRSLAASAPQSCTGKPVVAVLTPGIYNSAYFEHAFLADKMGVELVEGQDLRVIDGRVAMRTTRGYKPIDVLYRRVDDEFLDPLNFNPESALGVPGIMDVYRAGNITIANAPGTGIADDKAIYSYMPEIVEFYTGERPLLQNVQTWRCSEPDALAYVLDNLEDLVVKEVHGSGGYGMLIGPTASKKDLAAFRRKLKARPGNYIAQPTLALSTVPIFSRAGLSPRHVDLRPFVLCSPNKVHITPGGLTRVALKKGSLVVNSSQGGGTKDTWVLED,not soluble
9,MGSDKIHHHHHHMLMPDAPSNTESLPTSVDLAGEYQASGVAEILDELDRELVGLKPVKQRIRETAALLLVERARRAMGLSHEPPSLHMSFTGNPGTGKTTVALRMANLLHRLGYIRKGHLVSVTRDDLVGQYIGHTAPKTKEILKKAMGGVLFIDEAYYLYRPDNERDYGQEAIEILLQVMENNRDDLVVILAGYADRMDRFFESNPGFRSRIAHHIDFPDYDNGELLSIAESMLSRQGYRFDSKASAVMSDYIARRRRQPHFANARSIRNALDRARLRQANRLFEESAGPVDAEQLSTITARDIAASRVFATVEPSHTETSP,not soluble
10,MGSDKIHHHHHHMLNQQWLATFVTLVEVGHFTHTANKLFMTQPGVSQHIKKLEEQVGVHLLLRKGKRFELTEAGAILYQHARQYQLAETELLARLQTDNTYVGECRFGCSGAIASLLYPHFLERQIQYPELCVKIEAAPNQRIVSGILTNQLDMGIVTKRGEEADLTYQALGYAELSLVLPSQYLVDKIGIELLEQIGFIDHPDGDYYLQQVLQANFGGRAPMVNSRTGSPVKAHTMAFTHHIRRTGYVNQLSQILLPVAKGLGFTVLPLSTVNAFMPRESLWAVDLEQKVQESLYLVHKSTRPLPSRFDAFIEMAARLIAN,not soluble
11,MGSDKIHHHHHHMLNSMRINAFVKFQFPDDLLLNSNLVYGMVNGSTYEREIRDILGGREQAVKKYASKIPEKSDAIMSLIESPFYVTRSAGSFGADVIAIRHDFSMVIEVKSSVRPYLMFSEGSGKKQEQANRINEMCTKAGIFLTYAYRIKNVQGDPWKLFVVESKPIGRFSMVYELIPKIAKTREGNYIMKWEDGLPLSSFIEIINKKII,not soluble
12,MGSDKIHHHHHHMLRIFQGRPAVTIAAVLVAASVAGCAGKAKKPTLVYEERPVELLYSTGADRLDRGNWNEAVDYFREVERQHPYSEWSRRSILMTGYAHYMGNQYAEAIGDADRFISLYPGNPSAQYAFYLKAICYFEQIVDVNRDQAATEQALAALRDVVQRYPNTEYATDARLKIDMVNDQLAGKEMAIGRWYLKNGQTLAAIGRFKAVIERHQTTSHTPEALFRLVEAYLTIGLNEEAKRNGAVLGYNFPGDRWYVDAYRLLNDNGLRPAVEPLKAGAKRNALERILSKDKEATLAPPGERKAKKGLLGPLGM,not soluble
